Source: US20120270297A1, “CULTURING AND GENETIC MANIPULATIONS OF THERMOTOGA SPP” (BOWLING GREEN STATE UNIVERSITY, priority 2011, published 2012)
Where two headings read alike, the source gives them in different places.

Legend:
[1] = crude yeast extract, 37° C., cited from earlier work
T. maritima = assay: Selective levels of kanamycin in liquid and solid SVO media; format: cell-based, Thermotoga maritima; conditions: liquid SVO
Experimental: (§1) One ml of overnight culture was mixed with 25 ml of hot SVO containing 0.3% GELRITE and poured to Petri dishes. Small discs of 7 mm in diameter were cut from Whatman qualitative filter paper and were placed on solidified plates. Various amount of kanamycin (50˜250 μg) was added to the paper discs. After 48 h of anaerobic incubation, sensitive strains would display inhibition zones surrounding the discs. To specify the selective levels of the antibiotic in both liquid and solid media, kanamycin ranging from 50 to 300 μg ml^−1 was supplemented, and the proliferation of bacteria was monitored for up to 72 h.
(§2) We next specified the selective levels of kanamycin in both liquid and solid media. […] However, spontaneous mutations sometimes caused the cultures to become resistant to the antibiotic, and a complete inhibition over a period of 72 h was only possible when the input amount was increased to 150 μg ml^−1. Similar phenomena were also noticed with T. sp. RQ7. On SVO plates, spontaneous mutants of T. maritima and T. sp. […] Based on these observations, for the rest of the study, kanamycin was added at 150 μg ml^−1 to liquid media and at 250 μg ml^−1 to soft and solid media.

T. sp. RQ7 = assay: as above; format: cell-based, Thermotoga sp. RQ7; conditions: SVO plates, 48 h of incubation
Experimental: as §1, §2

pUC19 DNA [2] = assay: Modification assay: protection of pUC19 DNA from the REase by CTN_0340 extract; format: biochemical; conditions: 10 μl extract, 77° C. 1 h, then REase overnight at 77° C.
Experimental: One gram of E. coli wet cells grown at 37° C., containing pJC339 or pJC340 or both, were resuspended in 3 ml lysis buffer (10 mM Tris-HCl, 10 mM MgCl2, 50 mM NaCl, 1 mM DTT, pH 8.0) and were lysed with two passages through a French press at 14,000 pounds per square inch. After centrifugation at 27 k×g for 25 min, the supernatant was transferred to a new tube and heated at 77° C. for 1 h to denature most of the host proteins, followed by another round of centrifugation at 17 k×g for 15 min. The supernatant containing purified Thermotoga proteins was stored at 4° C. Such extracts retained 100% of the restriction activity for up to 5 weeks, and ≧50% of the activity for at least 12 weeks. For expression analysis, heat-purified cell extracts were mixed with loading buffer and were subjected to sodium dodecyl sulfate-polyacrylamide gel electrophoresis (SDS-PAGE) in 15% (w/v) gels. HisDetector Western Blot Kit (Kirkegaard & Perry Laboratories, Inc., Maryland, USA) was used for colorimetric immunodetection of histidine-tagged CTN—0339 protein. […] One unit of the REase activity is defined as the quantity required to completely digest 1 μg of pUC19 DNA in 1 h at 77° C. […] One unit of the MTase activity is defined as the quantity required to completely protect 1 μg of pUC19 DNA from the cleavage of the REase for 1 h at 77° C. […]

pUC19 = assay: Enzyme activity assay of M.TneDI prepared from DH1021 strains; format: biochemical
Experimental: Cells from 10 ml of the induced DH1021 cultures were harvested by centrifugation and were resuspended in 150 μl of lysis buffer (10 mM Tris-HCl, 10 mM MgCl2, 50 mM NaCl, 1 mM DTT, pH 8.0). Lysozyme was added to a final concentration of 0.3 mg/ml. The cell suspension was subject to 3 freeze-thaw cycles to lyse the cells. Cell lysate was then heated at 77° C. for 30 min to denature host proteins. After centrifugation at 21,130 g for 5 min, the supernatant was recovered and used as M.TneDI preparations for activity assays. Such prepared M.TneDI can be stored at −20° C. in the presence of 10% (v/v) glycerol for more than 2 months.
Plasmid pUC19 extracted from a XL1-Blue MRF′ host was used as the substrate DNA (FIG. 10). Eight micrograms of pUC19 was incubated with 10 μl of the above prepared M.TneDI for 1 h at 77° C., supplemented with 20 μg/ml of S-adenosyl-L-methionine (AdoMet). The DNA was then subjected to restriction digestions of R.TneDI or other Type II REases recognizing CGCG sequence, such as BstUI. […] Based on the growth and the enzyme activity assays, DH10212-3 was identified as the best strain for production of M.TneDI.

pUC19 DNA [3] = assay: Restriction assay of heat-purified cell extracts containing the REase; format: biochemical; conditions: for restriction activity retained on storage: heat-purified extract stored at 4° C.
Experimental: One gram of E. coli wet cells grown at 37° C., containing pJC339 or pJC340 or both, were resuspended in 3 ml lysis buffer (10 mM Tris-HCl, 10 mM MgCl2, 50 mM NaCl, 1 mM DTT, pH 8.0) and were lysed with two passages through a French press at 14,000 pounds per square inch. After centrifugation at 27 k×g for 25 min, the supernatant was transferred to a new tube and heated at 77° C. for 1 h to denature most of the host proteins, followed by another round of centrifugation at 17 k×g for 15 min. The supernatant containing purified Thermotoga proteins was stored at 4° C. Such extracts retained 100% of the restriction activity for up to 5 weeks, and ≧50% of the activity for at least 12 weeks. For expression analysis, heat-purified cell extracts were mixed with loading buffer and were subjected to sodium dodecyl sulfate-polyacrylamide gel electrophoresis (SDS-PAGE) in 15% (w/v) gels. HisDetector Western Blot Kit (Kirkegaard & Perry Laboratories, Inc., Maryland, USA) was used for colorimetric immunodetection of histidine-tagged CTN—0339 protein. For restriction assays, heat-purified cell extracts containing the REase were serially diluted in 2-fold steps with the lysis buffer and were incubated with 5 μg of substrate DNA in a reaction volume of 50 μl. After 1 h of incubation at 50° C., 65° C., or 77° C., the reaction was terminated with 5 μl of stopping buffer (50 mM EDTA, 50% (w/v) glycerol, 0.02% (w/v) bromophenol blue, pH 8.0). Digested DNA fragments were resolved on 1% (w/v) agarose gels. One unit of the REase activity is defined as the quantity required to completely digest 1 μg of pUC19 DNA in 1 h at 77° C. For modification assays, heat-purified cell extracts containing the MTase were serially diluted in 2-fold steps with the lysis buffer and were incubated with 5 μg of substrate DNA in a total volume of 50 μl. After 1 h of incubation at 77° C., the reaction mix was then incubated with 0.5 U of the REase at 77° C. for overnight. One unit of the MTase activity is defined as the quantity required to completely protect 1 μg of pUC19 DNA from the cleavage of the REase for 1 h at 77° C.
The PCR product of CTN—0339 was completely digested by heat-purified REase. Two fragments were generated and were retrieved from agarose gels. The smaller piece was directly analyzed by Sanger sequencing; the larger piece was further digested by NdeI and was inserted into pUC19 at the NdeI-SmaI sites to form pDH22. The insertion region of the constructed vector was sequenced.
To provide further evidence to the functions of the two Thermotoga proteins, we first tested the restriction activity of CTN—0339 at 50° C., 65° C., and 77° C. using pUC19 plasmid DNA prepared from strain XL1-Blue MRF′. […] (FIG. 3). […] (FIG. 3). […]

**Q.** For `C[S+](CC[C@H](N)C(=O)[O-])C[C@H]1O[C@@H](n2cnc3c(N)ncnc32)[C@H](O)[C@@H]1O` (stereo partly drawn) [AdoMet, S-adenosyl-L-methionine], which “original AdoMet found” value ([1]; 6 days) is on record?
**A.** ~70%

**Q.** What about the “original AdoMet found” value ([1]; 15 days) of the same molecule?
**A.** ~25%

**Q.** With `NC[C@H]1O[C@H](O[C@H]2[C@H](O)[C@@H](O[C@H]3O[C@H](CO)[C@@H](O)[C@H](N)[C@H]3O)[C@H](N)C[C@@H]2N)[C@H](O)[C@@H](O)[C@@H]1O` [kanamycin] as the molecule, how does the “kanamycin concentration that completely inhibited growth” value (T. maritima; at least 72 h) read?
**A.** 50 µg/mL

**Q.** What about the “kanamycin input needed for complete inhibition despite spontaneous mutations” value (T. maritima; over a period of 72 h) of the same molecule?
**A.** 150 µg/mL

**Q.** And the “kanamycin concentration at which spontaneous mutants rarely showed up” value (T. sp. RQ7)?
**A.** 250 µg/mL

B1: M.TneDI: methyltransferase of T. neapolitana encoded by CTN_0340, modifies CGCG sequences; SEQ ID NO: 14 (protein, listed as Thermotoga neapolitana)
chain: MKRRKSTRTSSFGVKGRESHDSSPFYSRAIYSNFSLPKPSEEDLIENPLPENLLDKVIEGDAREVLKKIPDCSIHLMVTSPPYNVGKEYDEDMTLDEYLEFIEEIMKEVYRVLVWGGRACFNVANLGRKPYIPLHAYLIHLFEKIGFLIRGEIIWDKGEAVSGSSTAWGSWMSPVNPVLRDQHEYIIVMSKGDLKRRKPSDREAKSTITREEFLEFTRSVWKFPPESAKRVGHPAPFPEELPYRCIQLYTFKGDVVLDPFAGVGTTCVAAVKTGRHFVGIEINPEYVKKAEERVKDILSKPTLFEDHC
**Q.** Which “digestion of treated pUC19 DNA by the REase” value (pUC19 DNA [2]) does the source give for B1 here?
**A.** only partially digested

**Q.** And the “protection of substrate DNA from R.TneDI or BstUI” value (pUC19; 10 μl preparation, 8 μg pUC19, 1 h at 77° C., 20 μg/ml AdoMet)?
**A.** prevents substrate DNA from the degradation

**Q.** What about the “storage time of M.TneDI preparation” value (pUC19; −20° C., 10% (v/v) glycerol) of the same molecule?
**A.** more than 2 months

B2: R.TneDI: Type II restriction endonuclease of T. neapolitana encoded by CTN_0339, recognizing CGCG; SEQ ID NO: 13 (protein, listed as Thermotoga neapolitana)
chain: MRKTDPLIDIFKKNKERIDILGKAWDIFYFEGRAPDVGKRRENFIVEMIRKELSHFIKSVNQAPDTERNWDIEITFQDDSTKRYSIKTTEGFSDVKIAWDGFPTKDRILTFNFQADIFYIARNKDKIILCVIDLEKLRDLQREVEKNESKLEEYYSLPSSNTNPRGFGLKSSTVKRLIELSKKEENYLEIDYKPFPVELILKAKEEYFKGWYDLIKELIEKYQQ
**Q.** Which “extract required to completely digest 1 μg of pUC19 DNA within 1 h” value (pUC19 DNA [3]; 65° C. or 50° C.) does the source give for B2 here?
**A.** 2.5 μl

**Q.** What about the “extract required to completely digest 1 μg of pUC19 DNA within 1 h” value (pUC19 DNA [3]; 77° C., relative to the amount at 65° C. or 50° C.) of the same molecule?
**A.** half of the amount

**Q.** And the “restriction activity retained on storage” value (pUC19 DNA [3]; at least 12 weeks)?
**A.** ≥ 50%

**Q.** And the “restriction activity retained on storage” value (pUC19 DNA [3]; up to 5 weeks)?
**A.** 100%
